Key:
[1] = molecular target: spike (S) protein of the BA.4/5 SARS-CoV-2 pseudovirus (SARS-CoV-2, Omicron subvariant BA.4/5, UniProt P0DTC2 14-1273); assay: cell-based or functional assay
[2] = molecular target: spike (S) protein of the authentic parental Omicron variant (B.1.1.529) of SARS-CoV-2 (SARS-CoV-2, B.1.1.529 (Omicron) variant, UniProt P0DTC2 14-1273); assay: cell-based or functional assay

B1: plant-made tixagevimab (pTixagevimab) (antibody, V domains shown)
VH: QMQLVQSGPEVKKPGTSVKVSCKASGFTFMSSAVQWVRQARGQRLEWIGWIVIGSGNTNYAQKFQERVTITRDMSTSTAYMELSSLRSEDTAVYYCAAPYCSSISCNDGFDIWGQGTMVTVSS
VL: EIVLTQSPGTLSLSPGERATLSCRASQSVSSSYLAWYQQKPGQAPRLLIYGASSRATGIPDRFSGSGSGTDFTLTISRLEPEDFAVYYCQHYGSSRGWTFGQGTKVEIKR
- neutralization of BA.4/5 pseudovirus, luciferase reporter assay, IC50 [1]: 26.7 µg/mL
- neutralization of authentic B.1.1.529 (Omicron) virus, foci-forming assay, IC50 [2]: 19.7 µg/mL
